Experimental data reported in patent US20220324939A1 (Regeneron, published 2022).

T1: MAGE-A4 peptide on HLA-A*02:01 (human)
T1 peptide: GVYDGREHTV

T2: MAGE-A8 peptide on HLA-A*02:01 (human)
T2 peptide: GLYDGREHSV

B1: PN45489 (TCR, V domains shown)
V domain 1: TQLLEQSPQFLSIQEGENLTVYCNSSSVFSSLQWYRQEPGEGPVLLVTVVTGGEVKKLKRLTFQFGDARKDSSLHITAAQPGDTGLYLCAEDGGSQGNLIFGKGTKLSVKP
V domain 2: DVKVTQTSRYLVKRTGEKVFLECVQDMDHENMFWYRQDPGLGLRLIYFSYDVKMKEKGDIPEGYSVSREKKERFSLILESASTNQTSMYLCASSLQGRYYGYTFGSGTRLTVV
notes: stained with anti-mouse TCR constant region H57-597; full-length chains on transfected CHO cells; also called TCR No. 48
B2: PN45494 (TCR, V domains shown)
V domain 1: GNSVTQIEGPVTLSEEAFLTINCTYTATGYPSLFWYVQYPGEGLQLLLKATKADDKGSNKGFEATYRKETTSFHLEKGSVQVSDSAVYFCALSDTRDDKTIFGKGTRLHILP
V domain 2: DVKVTQSSRYLVKRTGEKVFLECVQDMDHENMFWYRQDPGLGLRLIYFSYDVKMKEKGDIPEGYSVSREKKERFSLILESASTNQTSMYLCASSLQGRYYGYTFGSGTRLTVV
notes: full-length chains on transfected CHO cells; also called TCR No. 50
B3: PN45481 (TCR, V domains shown)
V domain 1: GNSVTQMEGPVTLSEEAFLTINCTYTATGYPSLFWYVQYPGEGLQLLLKATKADDKGSNKGFEATYRKETTSFHLEKGSVQVSDSAVYFCALSDTRDDKIIFGKGTRLHILP
V domain 2: DVKVTQSSRYLVKRTGEKVFLECVQDMDHENMFWYRQDPGLGLRLIYFSYDVKMKEKGDIPEGYSVSREKKERFSLILESASTNQTSMYLCASSLQGRYYGYTFGSGTRLTVV
notes: full-length chains on transfected CHO cells; also called TCR No. 54
B4: PN45546 (TCR, V domains shown)
V domain 1: AQTVTQSQPEMSVQEAETVTLSCTYDTSESDYYLFWYKQPPSRQMILVIRQEAYKQQNATENRFSVNFQKAAKSFSLKISDSQLGDAAMYFCAYRSGAGGTSYGKLTFGQGTILTVHP
V domain 2: DAGVTQSPTHLIKTRGQQVTLRCSPISGHKSVSWYQQVLGQGPQFIFQYYEKEERGRGNFPDRFSARQFPNYSSELNVNALLLGDSALYLCASSIRDTYGYTFGSGTRLTVV
notes: full-length chains on transfected CHO cells; also called TCR No. 53
B5: PN45460 (TCR, V domains shown)
V domain 1: GNSVTQMEGPVTLSEEAFLTINCTYTATGYPSLFWYVQYPGEGLQLLLKATKADDKGSNKGFEATYRKETTSFHLEKGSVQVSDSAVYFCALSDTRDDKIIFGKGTRLHILP
V domain 2: EAQVTQSPRYLITVTGKKLTVTCSQNMNHEYMSWYRQDPGLGLRQIYYSMNVEVTDKGDVPEGYKVSRKEKRNFPLILESPSPNQTSLYFCASSPGTGGFSPLHFGNGTRLTVT
notes: full-length chains on transfected CHO cells; also called TCR No. 49

Key:
[1] = molecular target: T3, soluble HLA-A2 MAGE-A4 (…) tetramer (human); experiment: flow cytometry, HLA-A2 MAGE-A4 (…) tetramer staining of CHO cells transfected with the TCR
T3 construct: Bought tetramer reagent; also called MAGE-A4/HLA tetramer reagent; HLA-A02:01 MAGE-A4 tetramer
Method: (§1) Samples were then analyzed on an LSRFortessa X-20 (BD Biosciences, San Jose, Calif.). […] However, a more stringent cutoff, such as 3%, could be used to separate out Ag+ TCRs that behave better in the binding assay. Ag+ TCRs were determined by Next Generation Sequencing.

[2] = molecular target: T1, MAGE-A4 peptide on HLA-A*02:01; experiment: multimer staining
[3] = molecular target: T2, MAGE-A8 peptide on HLA-A*02:01; experiment: multimer staining
[4] = molecular target: T4, soluble HLA-A2 MAGE-A8 (…) tetramer (human); experiment: flow cytometry, HLA-A2 MAGE-A8 (…) tetramer staining of CHO cells transfected with the TCR
T4 construct: Bought tetramer reagent; also called MAGE-A8/HLA tetramer reagent; HLA-A02:01 MAGE-A8 tetramer
Method: as §1

[5] = molecular target: T3, soluble HLA-A2 MAGE-A4 (…) tetramer; experiment: flow cytometry tetramer staining; % with MAGE-A4 tetramer divided by % with MAGE-A8 tetramer (reference)
Method: as §1

Binder	% tetramer in Ag+ gate (MAGE-A4) [1] [%]	binding result [2]	binding result [3]	% tetramer in Ag+ gate (MAGE-A8) [4] [%]	MAGE-A4/MAGE-A8 (ratio of % tetramer in Ag+ gate) [5]
B1	16	recognises	recognises	6.39	2.5
B2	3.7	recognises	recognises	1.88	1.97
B3	87.9	recognises	recognises	72.9	1.21
B4	74.8	recognises	recognises	60.6	1.23
B5	34.7	recognises	recognises	16.7	2.08
